The target of assay [1] is T1, human CD3ε (human, UniProt P07766 23-207).
T1 construct: whole, on cells; Present on cells as part of the CD3/TCR complex; also called CD3 epsilon
The experiment in a line: flow cytometry, Jurkat cells.

Assay [2] deals with T1, human CD3ε. Kind of assay: flow cytometry, primary CD4+ and CD8+ T-cells.
Assay [3] deals with T2, human CEACAM5 (carcinoembryonic antigen, CEA), cell surface (human, UniProt P06731 35-685).
T2 sequence (looked up): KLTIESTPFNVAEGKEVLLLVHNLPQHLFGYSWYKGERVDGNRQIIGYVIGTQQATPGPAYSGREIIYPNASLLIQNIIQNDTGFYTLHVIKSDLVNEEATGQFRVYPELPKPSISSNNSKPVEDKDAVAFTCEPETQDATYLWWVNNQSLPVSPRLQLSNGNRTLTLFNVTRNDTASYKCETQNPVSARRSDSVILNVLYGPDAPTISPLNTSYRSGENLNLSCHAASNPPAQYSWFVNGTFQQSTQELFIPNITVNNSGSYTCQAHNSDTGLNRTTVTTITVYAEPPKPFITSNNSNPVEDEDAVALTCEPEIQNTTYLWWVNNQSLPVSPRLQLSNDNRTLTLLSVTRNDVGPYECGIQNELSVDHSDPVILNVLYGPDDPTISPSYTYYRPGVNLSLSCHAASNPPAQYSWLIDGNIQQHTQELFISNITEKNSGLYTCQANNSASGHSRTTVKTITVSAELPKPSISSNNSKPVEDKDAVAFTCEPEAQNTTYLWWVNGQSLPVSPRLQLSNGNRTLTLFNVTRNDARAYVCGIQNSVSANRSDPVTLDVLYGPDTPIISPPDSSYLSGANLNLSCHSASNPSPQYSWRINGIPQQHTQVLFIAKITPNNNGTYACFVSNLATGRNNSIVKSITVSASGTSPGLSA
Kind of assay: cell-based or functional assay.

Assay [4] addresses T3, shed soluble CEACAM5 (sCEA) (human, UniProt P06731 35-685, limits assumed).
T3 sequence (looked up): T2 sequence (looked up)
Kind of assay: cell-based or functional assay.

Assay [5] concerns the target T2, human CEACAM5 (carcinoembryonic …). The experiment in a line: flow cytometry, MKN-45 cells. The source says:
Examples of cells that can be used include CEACAM5-positive cell lines such as the gastric adenocarcinoma cell line MKN45 (expressing 155′000 CEACAM5 molecules per cell), or the pancreatic adenocarcinoma cell line HPAF-II (expressing 108′000 CEACAM5 molecules per cell) or the colorectal adenocarcinoma cell line LS174T (expressing 26′000 CEACAM5 molecules per cell) and CEACAM5-negative cell lines, such as the lung carcinoma cell line A549 and the MKN45 CEACAM5-knock out cell line generated by CRISPR-CAS9 methodology. Cell staining and binding assessment can be performed as described above. Binding of the bsAb of the invention at 200 nM, 1000 nM and 5000 nM is 40% and higher compared to binding of TCB2014 (see Table 4 and also FIGS. 11 and 14).

For assay [6] the target is unchanged. The experiment in a line: flow cytometry, CEA positive cells.
Assay [7] has as its target T1, human CD3ε. The experiment in a line: flow cytometry, HUT-78 cells.
Assay [8] has as its target T2, human CEACAM5 (carcinoembryonic …). The experiment in a line: flow cytometry, MKN-45 and/or HPAF-II cells.
Assay [9] deals with T4, biotinylated recombinant human CEACAM5 protein (human, UniProt P06731 35-685, biotinylated in vitro with biotin ligase (Avitag)).
T4 construct: extracellular domain; also called recombinant CEA; CEA ECD; not shown: C-terminal Avitag and either a hexa-histidine tag, a human Fc region or a mouse Fc region; which one was used in the ELI
T4 sequence (looked up): T2 sequence (looked up)
Kind of assay: competition ELISA with reference antibodies.

Positions count from the first letter of the chain named. Names may count otherwise.

T1 sequence (P07766 23-207): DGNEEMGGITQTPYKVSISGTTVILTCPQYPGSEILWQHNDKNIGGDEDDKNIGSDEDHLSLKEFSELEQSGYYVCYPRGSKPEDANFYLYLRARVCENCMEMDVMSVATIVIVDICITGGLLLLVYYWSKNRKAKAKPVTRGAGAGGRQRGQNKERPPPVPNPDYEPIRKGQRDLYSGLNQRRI

B1: AB1 L3-1/D (bispecific antibody, human IgG1, kappa, lambda, L234A L235A)
heavy: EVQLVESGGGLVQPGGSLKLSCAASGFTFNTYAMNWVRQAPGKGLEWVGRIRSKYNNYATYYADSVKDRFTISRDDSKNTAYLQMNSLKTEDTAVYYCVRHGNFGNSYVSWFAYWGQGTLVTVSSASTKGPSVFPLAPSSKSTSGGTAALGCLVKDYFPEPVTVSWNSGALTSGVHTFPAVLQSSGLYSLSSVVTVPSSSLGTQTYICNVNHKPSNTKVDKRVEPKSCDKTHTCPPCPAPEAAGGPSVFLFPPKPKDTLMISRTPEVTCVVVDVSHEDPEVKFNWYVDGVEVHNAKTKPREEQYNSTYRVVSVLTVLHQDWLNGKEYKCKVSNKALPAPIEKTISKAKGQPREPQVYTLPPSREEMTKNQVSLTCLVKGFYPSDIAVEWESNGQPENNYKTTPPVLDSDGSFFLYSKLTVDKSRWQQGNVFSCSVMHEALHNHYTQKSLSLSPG
light 1: EIVLTQSPATLSLSPGERATLSCRASQSVNSNLNWYQQKPGQAPRLLIYHGSNRATGIPARFSGSGSGTDFTLTISSLEPEDFAVYYCQQFDLRHEHNTFGQGTKVEIKRTVAAPSVFIFPPSDEQLKSGTASVVCLLNNFYPREAKVQWKVDNALQSGNSQESVTEQDSKDSTYSLSSTLTLSKADYEKHKVYACEVTHQGLSSPVTKSFNRGEC
light 2: QTVVTQEPSLTVSPGGTVTLTCRSSTGAVTTSNYANWFQQKPGQAPRGLIGGTNKRAPGTPARFSGSLLGGKAALTLSGAQPEDEAEYYCALWYKQRWVFGGGTKLTVLGQPKAAPSVTLFPPSSEELQANKATLVCLISDFYPGAVTVAWKADSSPVKAGVETTTPSKQSNNKYAASSYLSLTPEQWKSHRSYSCQVTHEGSTVEKTVAPTECS
notes: KL CEAxCD3 bispecific antibody, hIgG1 L234A+L235A
For the molecule B1, the binding result in the assay with human CD3ε [1] is “binds”.

B2: AB54L3-1/N (bispecific antibody, human IgG1, kappa, lambda, L234A L235A)
heavy: EVQLVESGGGLVQPGGSLKLSCAASGFTFNTYAMNWVRQAPGKGLEWVGRIRSKYNNYATYYADSVKDRFTISRDDSKNTAYLQMNSLKTEDTAVYYCVRHGNFGNSYVSWFAYWGQGTLVTVSSASTKGPSVFPLAPSSKSTSGGTAALGCLVKDYFPEPVTVSWNSGALTSGVHTFPAVLQSSGLYSLSSVVTVPSSSLGTQTYICNVNHKPSNTKVDKRVEPKSCDKTHTCPPCPAPEAAGGPSVFLFPPKPKDTLMISRTPEVTCVVVDVSHEDPEVKFNWYVDGVEVHNAKTKPREEQYNSTYRVVSVLTVLHQDWLNGKEYKCKVSNKALAAPIEKTISKAKGQPREPQVYTLPPSREEMTKNQVSLTCLVKGFYPSDIAVEWESNGQPENNYKTTPPVLDSDGSFFLYSKLTVDKSRWQQGNVFSCSVMHEALHNHYTQKSLSLSPG
light 1: B1 light 1 with S28E, N30H, S31K, G51S, D92N, L93Y, R94H
light 2: B1 light 2
notes: Kappa-lambda body, lead optimization wave 2
B2: the binding result with human CD3ε [2] was “binds”. In assay [3], the “Killing EC50, HPAFII cells (TDCC, LDH release)” value (from here on “Killing EC50, HPAFII cells”) is 0.1 nM; the “Killing EC50, LS174T cells (TDCC, LDH release)” value (shortened to “Killing EC50, LS174T cells”) is 0.13 nM; the “Killing EC50, MKN45 cells (TDCC, LDH release)” value (“Killing EC50, MKN45 cells” below) was 0.11 nM. In assay [4], the “EC50 fold change compared to no shed CEA condition, sCEA 0 µg/mL (reference)” value was determined as 1 fold; the “EC50 fold change compared to no shed CEA condition, sCEA 0.2 µg/mL” value came to 0.9 fold; the “EC50 fold change compared to no shed CEA condition, sCEA 1 µg/mL” value is 4.6 fold; the “EC50 fold change compared to no shed CEA condition, sCEA 5 µg/mL” value was 5.7 fold. Also, in assay [5], it took 66.4 nM to reach a half-maximal effect (EC50); the “Top MFI value” worked out at 760000 MFI; the “binding higher than TCB2014 (at 200 nM, 1000 nM and 5000 nM)” value is ≥ 40%. Besides, in [6], the “binding higher than TCB2014 (at 200 nM)” value is ≥ 40%.

B3: AB15L3-1/N (bispecific antibody, human IgG1, kappa, lambda, L234A L235A)
heavy: B2 heavy
light 1: B1 light 1 with S28T, S31N, A43S, H50Y, G51A, D92N, L93Y, R94H
light 2: B1 light 2
notes: Kappa-lambda body, lead optimization wave 1
B3: the binding result with human CD3ε [7] is “binds”. Also, in assay [8], the “binding higher than TCB2014 (at 100 nM)” value is ≥ 40%.

B4: AB20L3-1/N (bispecific antibody, human IgG1, kappa, lambda, L234A L235A)
heavy: B2 heavy
light 1: B1 light 1 with L93Y, R94F, H95R, H97L
light 2: B1 light 2
notes: as for B3
In the case of B4, the binding result with human CD3ε [7] is listed as “binds”. Further, the “binding higher than TCB2014 (at 100 nM)” value in assay [8] was ≥ 40%.

B5: AB13L3-1/N (bispecific antibody, human IgG1, kappa, lambda, L234A L235A)
heavy: B2 heavy
light 1: B1 light 1 with L93Y, R94F, H95M, E96N, H97K
light 2: B1 light 2
notes: as for B3
Turning to B5, the binding result in the assay with human CD3ε [7] is on record as “binds”. Moreover, the “binding higher than TCB2014 (at 100 nM)” value in assay [8] is ≥ 40%.

B6: AB14L3-1/N (bispecific antibody, human IgG1, kappa, lambda, L234A L235A)
heavy: B2 heavy
light 1: B1 light 1 with L93Y, R94F, H95R, H97S
light 2: B1 light 2
notes: as for B3
Consider B6, for which, in the assay with human CD3ε [7], the binding result was “binds”. The “binding higher than TCB2014 (at 100 nM)” value in [8] was ≥ 40%.

B7: AB60L3-1/N (bispecific antibody, human IgG1, kappa, lambda, L234A L235A)
heavy: B2 heavy
light 1: B1 light 1 with S28T, S31A, H50Y, G51A, L93Y, R94H, H95N
light 2: B1 light 2
notes: as for B2
On to B7, for which, in the assay with human CD3ε [2], the binding result is “binds”. Moreover, in assay [3], the “Killing EC50, HPAFII cells” value amounted to 0.28 nM; the “Killing EC50, LS174T cells” value amounted to 0.21 nM; the “Killing EC50, MKN45 cells” value was 0.13 nM. In assay [4], the “EC50 fold change compared to no shed CEA condition, sCEA 0 µg/mL (reference)” value turned out to be 1 fold; the “EC50 fold change compared to no shed CEA condition, sCEA 0.2 µg/mL” value turned out to be 0.9 fold; the “EC50 fold change compared to no shed CEA condition, sCEA 1 µg/mL” value was determined as 0.8 fold; the “EC50 fold change compared to no shed CEA condition, sCEA 5 µg/mL” value was determined as 1.3 fold. For the same molecule, in [5], the midpoint of the response, the EC50, lay at 64.1 nM; the “Top MFI value” stood at 989000 MFI; the “binding higher than TCB2014 (at 200 nM, 1000 nM and 5000 nM)” value was ≥ 40%. For the same molecule, the “binding higher than TCB2014 (at 200 nM)” value in assay [6] was ≥ 40%.

B8: AB66L3-1/N (bispecific antibody, human IgG1, kappa, lambda, L234A L235A)
heavy: B2 heavy
light 1: B1 light 1 with R24H, A25S, S28V, S31K, L93Y, R94F, H95R
light 2: B1 light 2
notes: as for B2
For B8, in the assay with human CD3ε [2], the binding result is “binds”. Also, in assay [3], the “Killing EC50, HPAFII cells” value is 0.2 nM; the “Killing EC50, LS174T cells” value is 0.22 nM; the “Killing EC50, MKN45 cells” value was found to be 0.05 nM. For the same molecule, in [4], the “EC50 fold change compared to no shed CEA condition, sCEA 0 µg/mL (reference)” value worked out at 1 fold; the “EC50 fold change compared to no shed CEA condition, sCEA 0.2 µg/mL” value came to 1.2 fold; the “EC50 fold change compared to no shed CEA condition, sCEA 1 µg/mL” value amounted to 2.1 fold; the “EC50 fold change compared to no shed CEA condition, sCEA 5 µg/mL” value was found to be 3.1 fold. In addition, in assay [5], the EC50 was 24.3 nM; the “Top MFI value” came out at 759000 MFI; the “binding higher than TCB2014 (at 200 nM, 1000 nM and 5000 nM)” value was ≥ 40%. For the same molecule, in [6], the “binding higher than TCB2014 (at 200 nM)” value is ≥ 40%.

B9: anti-CEA antibody C11 (antibody, human IgG1, kappa, V domains shown)
VH: EVQLVESGGGLVQPGGSLKLSCAASGFTFNTYAMNWVRQAPGKGLEWVGRIRSKYNNYATYYADSVKDRFTISRDDSKNTAYLQMNSLKTEDTAVYYCVRHGNFGNSYVSWFAYWGQGTLVTVSS
VL: DIQMTQSPSTLSASVGDRVTITCRASQLISNGLYWYQQKPGKAPKLLIYDASILESGVPSRFSGSGSGTEFTLTISSLQPDDFATYYCQQRLSWPLTFGQGTKVEIKR
notes: Bivalent monoclonal antibody; also called C11 mAb
For the molecule B9, the binding result in assay [9] is reported as “binds”.
